T1: cyno IL-6 (cynomolgus monkey, UniProt P79341 28-212, limits assumed)
T1 sequence (looked up): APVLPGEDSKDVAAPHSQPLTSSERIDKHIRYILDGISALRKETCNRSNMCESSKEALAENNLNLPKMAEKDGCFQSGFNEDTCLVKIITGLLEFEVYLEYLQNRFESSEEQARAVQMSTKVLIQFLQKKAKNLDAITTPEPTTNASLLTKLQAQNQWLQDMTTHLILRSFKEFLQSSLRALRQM


Tests used:
cyno IL-6 [1] = target: T1, cyno IL-6; assay: cell-based or functional assay
human TNF-α [2] = target: T2, human TNF-α (human, UniProt P01375 77-233); assay: cell-based or functional assay
cyno TNF-α [3] = target: T3, cyno TNF-α (cynomolgus monkey, UniProt P79337 77-233); assay: cell-based or functional assay
human IL-6 [4] = target: T4, human IL-6 (human, UniProt P05231 30-212); assay: cell-based or functional assay
cyno IL-6 [5] = target: T1, cyno IL-6; assay: cell-based or functional assay; remark: listed apart in the source
human TNF-α [6] = target: T2, human TNF-α; assay: cell-based or functional assay; remark: listed apart in the source
cyno TNF-α [7] = target: T3, cyno TNF-α; assay: cell-based or functional assay; remark: listed apart in the source
human IL-6 [8] = target: T4, human IL-6; assay: cell-based or functional assay; remark: listed apart in the source
human IL-6 [9] = target: T4, human IL-6; assay: SPR

T3 sequence (P79337 77-233 limits assumed): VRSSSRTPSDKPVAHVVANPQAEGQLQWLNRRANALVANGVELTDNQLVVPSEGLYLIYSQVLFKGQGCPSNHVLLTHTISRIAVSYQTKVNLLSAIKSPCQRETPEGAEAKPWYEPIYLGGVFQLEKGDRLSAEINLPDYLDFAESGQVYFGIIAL
T2 sequence (P01375 77-233 limits assumed): as the sequence (P79337 77-233 limits assumed) above, with V37L, T44R, N72T, L138R counted along it

| Ratio IC50 cyno IL-6/hIL-6 (cyno IL-6 [1]) [ratio] | IC50 hTNF-α Nfkb assay (human TNF-α [2]) [nM] | Ratio IC50 cyno TNFα/hTNFα (cyno TNF-α [3]) [ratio] | IC50 hIL-6 TF1 proliferation assay (human IL-6 [4]) [nM] | cyno IL-6 TF1 proliferation assay (IC50, pM) (cyno IL-6 [5]) [pM] | Ratio IC50 reference anti-TNF-α mAb/Nb (human TNF-α [6]) [ratio] | hTNF-α Nfkb assay (IC50, pM) (human TNF-α [6]) [pM] | cyno TNF-α NFkb assay (IC50, pM) (cyno TNF-α [7]) [pM] | Ratio IC50 reference anti-IL-6 mAb1/Nb (human IL-6 [8]) [ratio] | hIL-6 TF1 proliferation assay (IC50, pM) (human IL-6 [8]) [pM] | koff (human IL-6 [9]) [s⁻¹] | Binder |
| --- | --- | --- | --- | --- | --- | --- | --- | --- | --- | --- | --- |
| 1 | 0.0593 | 4.3 | 0.0712 | 72 | 4.2 | 59 | 254 | 1.8 | 71 |  | F027200927 (bispecific antibody) DVQLVESGGGVVQPGGSLRLSCTASGFTFSTADMGWFRQAPGKGREFVARISGIDGTTYYDEPVKGRFTISRDNSKNTVYLQMNSLRPEDTALYYCRSPRYADQWSAYDYWGQGTLVTVSSGGGGSGGGSEVQLVESGGGVVQPGGSLRLSCAASGRTFSSYVMGWFRQAPGKEREFVSTINWAGSRGYYADSVKGRFTISRDNAKNTVYLQMNSLRPEDTALYYCAASAGGFLVPRVGQGYDYWGQGTLVTVSSGGGGSGGGSEVQLVESGGGVVQPGGSLRLSCAASGFTFRSFGMSWVRQAPGKGPEWVSSISGSGSDTLYADSVKGRFTISRDNSKNTLYLQMNSLRPEDTALYYCTIGGSLSRSSQGTLVTVSSGGGGSGGGSEVQLVESGGGVVQPGGSLRLSCAASGFSLDYYGVGWFRQAPGKEREGVSCISSSEGDTYYADSVKGRFTISRDNAKNTVYLQMNSLRPEDTALYYCATDLSDYGVCSRWPSPYDYWGQGTLVKVSSA |
|  |  |  |  |  |  |  |  |  |  | 5.9e-05 | F027201040 (VHH, also called IL6006B12 (L11V, S52aG, S60A, K83R, V89L)) VHH: EVQLVESGGGVVQPGGSLRLSCAASGFTLAYYAIGWFRQAPGKEREGVSCISGSVGTTYYADSVKGRFTISRDNAKNTVYLQMNSLRPEDTALYYCVRSSWFDCGVQGRDLGNEYDYRGQGTLVTVSS |
| 0.7 | 0.0712 | 2.5 | 0.147 | 101 | 0.91 | 71 | 176 | 2.7 | 147 |  | F027201061 (bispecific antibody) EVQLVESGGGVVQPGGSLRLSCTASGFTFSTADMGWFRQAPGKGREFVARISGIDGTTYYDEPVKGRFTISRDNSKNTVYLQMNSLRPEDTALYYCRSPRYADQWSAYDYWGQGTLVKVSSGGGGSGGGSEVQLVESGGGVVQPGGSLRLSCAASGFTLAYYAIGWFRQAPGKEREGVSCISGSVGTTYYADSVKGRFTISRDNAKNTVYLQMNSLRPEDTALYYCVRSSWFDCGVQGRDLGNEYDYRGQGTLVTVSSGGGGSGGGSEVQLVESGGGVVQPGGSLRLSCAASGFTFRSFGMSWVRQAPGKGPEWVSSISGSGSDTLYADSVKGRFTISRDNSKNTLYLQMNSLRPEDTALYYCTIGGSLSRSSQGTLVTVSSGGGGSGGGSEVQLVESGGGVVQPGGSLRLSCAASGFSLDYYGVGWFRQAPGKEREGVSCISSSEGDTYYADSVKGRFTISRDNAKNTVYLQMNSLRPEDTALYYCATDLSDYGVCSRWPSPYDYWGQGTLVKVSS |

From patent US20240301049A1 (Ablynx, published 2024)
